Residue numbers refer to the chain shown, from its start. Names and notes keep the numbering of the source. Values joined by “and” are separate entries in the source; they are usually repeats but may differ in a detail not shown here. Equal entries are not always repeated.
B1: mAb Lc-2B03 + Hc2 M34S, M100L (antibody, human IgG1, V domains shown)
VH: QVTLKESGPVLVKPTETLTLTCTVSGFSLSTYGSGVGWIRQPPGKALEWLAHIWWDDVKRYNPALKSRLTISKDTSKSQVVLTMTNMDPVDTATYYCARLGSDYDVWFDYWGQGTLVTVSS
VL: EIVLTQSPATLSLSPGERATLSCRASKSISKYLAWYQQKPGQAPRLLIYSGSTLQSGIPARFSGSGSGTDFTLTISSLEPEDFAVYYCQQHDYPYTFGQGTKLEIKR
B2: mAb Lc-2B03 + Hc2 T31S, M34V, M100L (antibody, human IgG1, V domains shown)
VH: B1 VH with T31S, S34V
VL: B1 VL
B3: mAb Lc-2B03 + Hc2 M34V, M100L (antibody, human IgG1, V domains shown)
VH: B1 VH with S34V
VL: B1 VL
B4: mAb Lc-2B03 + Hc2 T31S, M34S, M100L, V106I (antibody, human IgG1, V domains shown)
VH: B1 VH with T31S, V106I
VL: B1 VL
B5: mAb Lc-2B03 + Hc2 T31S, M34S, M100L (antibody, human IgG1, V domains shown)
VH: B1 VH with T31S
VL: B1 VL
B6: mAb Lc-2B03 + Hc2 M34S, M100L, V106I (antibody, human IgG1, V domains shown)
VH: B1 VH with V106I
VL: B1 VL
B7: mAb Lc-2B03 + Hc2 M34V, M100L, V106I (antibody, human IgG1, V domains shown)
VH: B1 VH with S34V, V106I
VL: B1 VL
B8: Lc15Hc1 (antibody, human IgG1, V domains shown)
VH: B1 VH with V10A, E16Q, V24F, S34M, S78N, L100M
VL: VIWMTQSPSLLSASTGDRVTISCRASKSISKYLAWYQQKPGKAPELLIYSGSTLQSGVPSRFSGSGSGTDFTLTISCLQSEDFATYYCQQHNEYPYTFGGGTKVEIK
B9: mAb Lc-2B03 + Hc2 M34Q, M100L (antibody, human IgG1, V domains shown)
VH: B1 VH with S34Q
VL: B1 VL
B10: mAb Lc-2B03 + Hc2 M34E, M100L, V106I (antibody, human IgG1, V domains shown)
VH: B1 VH with S34E, V106I
VL: B1 VL
B11: Lc7Hc1 (antibody, human IgG1, V domains shown)
VL: DIQLTQSPSSLSASVGDRVTITCRASKSISKYLAWYRQKPGKVPKLLIYSGSTLQSGVPSRFSGSGSGTDFTLTISSLQPEDVATYYGQQHNEYPYTFGQGTKLEIK
VH: B1 VH with V10A, E16Q, V24F, S34M, S78N, L100M
B12: mAb Lc-2B03 + Hc2 M34E, M100L (antibody, human IgG1, V domains shown)
VH: B1 VH with S34E
VL: B1 VL
B13: Lc3Hc6 (antibody, human IgG1, V domains shown)
VH: QVQLVESGGGVVQPGRSLRLSCAASGFSLSTYGMGVGWVRQAPGKGLEWVAHIWWDDVKRYNPALKSRFTISRDNSKNTLYLQMNSLRAEDTAVYYCARMGSDYDVWFDYWGQGTLVTVSS
VL: B11 VL with D1A, R37Q, V43A, V83F, G88C, Q100G, L104V
B14: Lc7Hc6 (antibody, human IgG1, V domains shown)
VL: B11 VL
VH: B13 VH

Legend:
[1] = target: human IL-13 R130Q variant (R110Q of the mature chain) (human) (UniProt P35225); experiment: Biacore SPR, mAb from CHO
[2] = target: human IL-13 R130Q variant (R110Q of the mature chain) (human) (UniProt P35225); experiment: Biacore SPR, mAb from HEK293
[3] = target: human IL-13 R130Q variant (R110Q of the mature chain) (human) (UniProt P35225); experiment: IL-13Ra2 binding inhibition ELISA, crude supernatant
[4] = target: human IL-13 R130Q variant (R110Q of the mature chain) (human) (UniProt P35225); experiment: direct binding ELISA, crude supernatant, relative to Lc16Hc7

Binder	Kd [1]	Kd [2]	Percent Inhibition IL-13 R130Q (333 ng/ml) to Ra2 [3]	Percent IL-13 R130Q (30 ng/ml) Binding [4]
B1	0.0184 nM	0.0014 nM		
B2	0.0058 nM	0.0037 nM		
B3	0.019 nM	0.0164 nM		
B4	0.0211 nM	0.0152 nM		
B5	0.0101 nM	0.0123 nM		
B6		0.0205 nM and 0.0209 nM		
B7		0.0252 nM		
B8			44%	76.2%
B9	0.0251 nM	0.0243 nM		
B10		0.0114 nM		
B11			6%	-1.4%
B12		0.0076 nM		
B13			14%	26.6%
B14			4%	-0.3%
